The nature of data set [1]: anti-Flag immunofluorescence, nucleus/cytoplasm densitometry. The conditions noted are these: glycan lost.
Data set [2] can be described thus: HeLa subcellular fractionation, anti-Flag western.
Data set [3] is described as follows: OGT enzyme activity (Supplementary Fig. 5a,b). The conditions noted are these: glycan lost; control: WT-OGT.

B1: O-GlcNAc transferase (OGT): Mono-OGT S389A (protein)
parent chain: MASSVGNVADSTGLAELAHREYQAGDFEAAERHCMQLWRQEPDNTGVLLLLSSIHFQCRRLDRSAHFSTLAIKQNPLLAEAYSNLGNVYKERGQLQEAIEHYRHALRLKPDFIDGYINLAAALVAAGDMEGAVQAYVSALQYNPDLYCVRSDLGNLLKALGRLEEAKACYLKAIETQPNFAVAWSNLGCVFNAQGEIWLAIHHFEKAVTLDPNFLDAYINLGNVLKEARIFDRAVAAYLRALSLSPNHAVVHGNLACVYYEQGLIDLAIDTYRRAIELQPHFPDAYCNLANALKEKGSVAEAEDCYNTALRLCPTHADSLNNLANIKREQGNIEEAVRLYRKALEVFPEFAAAHSNLASVLQQQGKLQEALMHYKEAIRISPTFADAYSNMGNTLKEMQDVQGALQCYTRAIQINPAFADAHSNLASIHKDSGNIPEAIASYRTALKLKPDFPDAYCNLAHCLQIVCDWTDYDERMKKLVSIVADQLEKNRLPSVHPHHSMLYPLSHGFRKAIAERHGNLCLDKINVLHKPPYEHPKDLKLSDGRLRVGYVSSDFGNHPTSHLMQSIPGMHNPDKFEVFCYALSPDDGTNFRVKVMAEANHFIDLSQIPCNGKAADRIHQDGIHILVNMNGYTKGARNELFALRPAPIQAMWLGYPGTSGALFMDYIITDQETSPAEVAEQYSEKLAYMPHTFFIGDHANMFPHLKKKAVIDFKSNGHIYDNRIVLNGIDLKAFLDSLPDVKIVKMKCPDGGDNADSSNTALNMPVIPMNTIAEAVIEMINRGQIQITINGFSISNGLATTQINNKAATGEEVPRTIIVTTRSQYGLPEDAIVYCNFNQLYKIDPSTLQMWANILKRVPNSVLWLLRFPAVGEPNIQQYAQNMGLPQNRIIFSPVAPKEEHVRRGQLADVCLDTPLCNGHTTGMDVLWAGTPMVTMPGETLASRVAASQLTCLGCLELIAKNRQEYEDIAVKLGTDLEYLKKVRGKVWKQRISSPLFNTKQYTMELERLYLQMWEHYAAGNKPDHMIKPVEVTESA
With B1, the localisation_or_trafficking result in data set [1] (control: Mono-OGT) was “decreases”; in data set [2] (glycan lost, control: Mono-OGT) it was “decreases”.

B2: O-GlcNAc transferase (OGT): 5-thio-GlcNAc (protein)
parent chain: B1 parent chain
As for B2, the localisation_or_trafficking entry in data set [1] (control: untreated cells) was “decreases”; in data set [2] (glycan lost, control: untreated cells), “decreases”.

B3: O-GlcNAc transferase (OGT): Thiamet-G (protein)
parent chain: B1 parent chain
Regarding B3, the localisation_or_trafficking result in data set [2] (glycan gained, control: untreated cells) is listed as “increases”.

B4: O-GlcNAc transferase (OGT): OGT S389A (protein)
parent chain: B1 parent chain
In the case of B4, the enzymatic_activity entry in data set [3] is “no change”.

Values taken from article PMC5054401.
